Measured values from PMC3334620.

Legend:
Conditions in all cases: 200 nM
[1] = biological target: T1, Sut1 (Saccharomyces cerevisiae) (UniProt P53032)
T1 sequence: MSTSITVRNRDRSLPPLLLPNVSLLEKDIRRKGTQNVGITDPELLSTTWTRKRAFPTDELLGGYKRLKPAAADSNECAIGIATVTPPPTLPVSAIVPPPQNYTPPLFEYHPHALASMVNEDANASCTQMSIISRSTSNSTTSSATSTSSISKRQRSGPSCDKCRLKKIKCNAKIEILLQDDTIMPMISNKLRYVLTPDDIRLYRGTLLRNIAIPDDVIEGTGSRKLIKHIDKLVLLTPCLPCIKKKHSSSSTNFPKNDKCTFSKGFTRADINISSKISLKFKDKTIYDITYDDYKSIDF

[2] = biological target: T2, Upc2 (Saccharomyces cerevisiae) (UniProt Q12151)
T2 sequence: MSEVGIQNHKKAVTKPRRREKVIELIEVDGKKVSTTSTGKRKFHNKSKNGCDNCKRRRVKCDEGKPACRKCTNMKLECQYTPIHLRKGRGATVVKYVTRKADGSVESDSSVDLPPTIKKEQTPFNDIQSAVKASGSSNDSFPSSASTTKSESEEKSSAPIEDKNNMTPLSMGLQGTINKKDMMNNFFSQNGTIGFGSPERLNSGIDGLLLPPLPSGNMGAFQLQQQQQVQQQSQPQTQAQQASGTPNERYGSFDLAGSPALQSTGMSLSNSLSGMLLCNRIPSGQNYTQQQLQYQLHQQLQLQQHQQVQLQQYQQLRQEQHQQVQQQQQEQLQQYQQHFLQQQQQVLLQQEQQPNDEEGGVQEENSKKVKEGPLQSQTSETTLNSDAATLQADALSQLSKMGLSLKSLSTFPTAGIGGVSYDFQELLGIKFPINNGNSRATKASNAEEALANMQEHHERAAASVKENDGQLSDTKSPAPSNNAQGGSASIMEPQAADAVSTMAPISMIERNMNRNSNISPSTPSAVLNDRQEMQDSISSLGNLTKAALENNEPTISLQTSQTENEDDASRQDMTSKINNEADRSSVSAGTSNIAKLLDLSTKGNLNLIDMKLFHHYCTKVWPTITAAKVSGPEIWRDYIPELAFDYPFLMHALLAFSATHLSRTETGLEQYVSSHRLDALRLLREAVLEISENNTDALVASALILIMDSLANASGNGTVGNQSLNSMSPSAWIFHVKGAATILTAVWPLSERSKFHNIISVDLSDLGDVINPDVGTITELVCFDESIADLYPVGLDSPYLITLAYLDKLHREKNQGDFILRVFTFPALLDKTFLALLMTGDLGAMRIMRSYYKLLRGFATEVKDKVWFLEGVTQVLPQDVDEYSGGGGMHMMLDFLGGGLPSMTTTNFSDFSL

[3] = biological target: T3, Stp1 (Saccharomyces cerevisiae) (UniProt Q00947)
T3 sequence: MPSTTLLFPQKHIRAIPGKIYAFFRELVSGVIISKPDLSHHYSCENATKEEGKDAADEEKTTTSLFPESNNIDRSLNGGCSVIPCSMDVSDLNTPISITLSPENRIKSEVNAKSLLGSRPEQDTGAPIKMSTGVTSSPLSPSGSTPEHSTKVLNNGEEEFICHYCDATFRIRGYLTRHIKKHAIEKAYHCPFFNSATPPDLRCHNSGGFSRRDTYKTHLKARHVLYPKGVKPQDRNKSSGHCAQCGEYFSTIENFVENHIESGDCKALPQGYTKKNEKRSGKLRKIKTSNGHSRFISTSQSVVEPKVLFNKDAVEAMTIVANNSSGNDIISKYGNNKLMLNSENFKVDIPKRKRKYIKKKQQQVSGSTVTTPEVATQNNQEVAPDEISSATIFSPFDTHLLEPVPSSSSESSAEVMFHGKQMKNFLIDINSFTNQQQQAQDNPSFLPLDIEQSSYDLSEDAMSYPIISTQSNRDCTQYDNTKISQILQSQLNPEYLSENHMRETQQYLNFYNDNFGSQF

[4] = biological target: T4, Stb5 (Saccharomyces cerevisiae) (UniProt P38699)
T4 sequence: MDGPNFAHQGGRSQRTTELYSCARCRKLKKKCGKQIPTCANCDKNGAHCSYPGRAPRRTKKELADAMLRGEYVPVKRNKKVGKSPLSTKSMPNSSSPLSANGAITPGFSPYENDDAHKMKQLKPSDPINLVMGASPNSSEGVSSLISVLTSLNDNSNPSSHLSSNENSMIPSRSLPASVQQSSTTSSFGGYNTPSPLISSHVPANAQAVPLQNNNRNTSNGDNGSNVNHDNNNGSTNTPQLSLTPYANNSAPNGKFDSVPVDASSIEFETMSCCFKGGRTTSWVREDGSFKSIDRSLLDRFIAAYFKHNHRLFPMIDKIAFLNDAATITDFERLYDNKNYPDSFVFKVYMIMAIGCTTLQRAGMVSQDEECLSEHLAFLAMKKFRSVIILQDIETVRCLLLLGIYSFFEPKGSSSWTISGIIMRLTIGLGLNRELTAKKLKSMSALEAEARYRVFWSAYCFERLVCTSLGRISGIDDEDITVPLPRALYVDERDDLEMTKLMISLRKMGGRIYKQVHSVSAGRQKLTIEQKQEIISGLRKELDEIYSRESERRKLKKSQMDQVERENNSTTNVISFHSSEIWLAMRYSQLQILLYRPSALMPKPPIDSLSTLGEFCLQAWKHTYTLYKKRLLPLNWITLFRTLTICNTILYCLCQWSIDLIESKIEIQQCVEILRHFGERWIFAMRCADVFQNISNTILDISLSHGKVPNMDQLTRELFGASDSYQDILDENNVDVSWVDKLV

[5] = biological target: T5, Ecm22 (Saccharomyces cerevisiae) (UniProt Q05958)
T5 sequence: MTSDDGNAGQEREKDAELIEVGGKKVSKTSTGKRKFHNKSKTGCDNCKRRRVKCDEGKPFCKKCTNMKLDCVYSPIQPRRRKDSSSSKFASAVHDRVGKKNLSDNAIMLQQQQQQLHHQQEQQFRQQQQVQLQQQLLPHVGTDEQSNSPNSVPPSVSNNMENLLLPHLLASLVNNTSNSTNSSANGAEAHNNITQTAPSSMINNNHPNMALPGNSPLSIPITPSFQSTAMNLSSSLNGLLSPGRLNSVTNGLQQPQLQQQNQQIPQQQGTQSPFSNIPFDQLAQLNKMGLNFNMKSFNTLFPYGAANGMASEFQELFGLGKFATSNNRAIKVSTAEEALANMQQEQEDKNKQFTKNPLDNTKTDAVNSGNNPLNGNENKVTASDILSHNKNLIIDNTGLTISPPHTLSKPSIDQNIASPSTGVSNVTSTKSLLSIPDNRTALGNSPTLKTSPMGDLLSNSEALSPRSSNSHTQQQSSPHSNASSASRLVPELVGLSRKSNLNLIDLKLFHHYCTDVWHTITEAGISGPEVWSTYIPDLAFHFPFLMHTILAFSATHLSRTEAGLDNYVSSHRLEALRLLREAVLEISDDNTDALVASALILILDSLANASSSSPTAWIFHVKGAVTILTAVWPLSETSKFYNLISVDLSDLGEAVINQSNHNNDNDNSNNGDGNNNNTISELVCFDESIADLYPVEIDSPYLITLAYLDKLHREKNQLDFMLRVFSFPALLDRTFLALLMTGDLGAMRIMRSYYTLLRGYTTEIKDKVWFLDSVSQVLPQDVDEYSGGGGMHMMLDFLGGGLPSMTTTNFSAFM

Row | Sequence | binding signal (PBM E-score (-0.5 to 0.5)) [1] | binding signal (PBM E-score (-0.5 to 0.5)) [2] | also measured
1 | AAACTCCG (double strand) [8-mer AAACTCCG] | 0.498 |  | 
2 | AAAGTCCG (double strand) [8-mer AAAGTCCG] | 0.496 |  | 
3 | AACTCCGA (double strand) [8-mer AACTCCGA] | 0.499 |  | 
4 | AACTCCGG (double strand) [8-mer AACTCCGG] | 0.499 |  | 
5 | AACTCCGT (double strand) [8-mer AACTCCGT] | 0.496 |  | 
6 | AAGTCCGA (double strand) [8-mer AAGTCCGA] | 0.498 |  | 
7 | AAGTCCGG (double strand) [8-mer AAGTCCGG] | 0.497 |  | 
8 | ACTCCGAA (double strand) [8-mer ACTCCGAA] | 0.495 |  | 
9 | ACTCCGAG (double strand) [8-mer ACTCCGAG] | 0.494 |  | 
10 | ATAAACGA (double strand) [8-mer ATAAACGA] |  | 0.494 | 
11 | ATCGTATA (double strand) [8-mer ATCGTATA] |  | 0.493 | 
12 | ATCGTTTA (double strand) [8-mer ATCGTTTA] |  | 0.495 | 
13 | CAACTCCG (double strand) [8-mer CAACTCCG] | 0.497 |  | 
14 | CAAGTCCG (double strand) [8-mer CAAGTCCG] | 0.492 |  | 
15 | CACGGCGC (double strand) [8-mer CACGGCGC] |  |  | binding signal (PBM E-score (-0.5 to 0.5)) [3]: 0.493
16 | CGCACGGC (double strand) [8-mer CGCACGGC] |  |  | binding signal (PBM E-score (-0.5 to 0.5)) [3]: 0.488
17 | CGCCGTGC (double strand) [8-mer CGCCGTGC] |  |  | binding signal (PBM E-score (-0.5 to 0.5)) [3]: 0.493
18 | CGCGGCAC (double strand) [8-mer CGCGGCAC] |  |  | binding signal (PBM E-score (-0.5 to 0.5)) [3]: 0.49
19 | CGCGGCGC (double strand) [8-mer CGCGGCGC] |  |  | binding signal (PBM E-score (-0.5 to 0.5)) [3]: 0.492

Row | Sequence | binding signal (PBM E-score (-0.5 to 0.5)) [1] | binding signal (PBM E-score (-0.5 to 0.5)) [2] | also measured
20 | CGGACTTC (double strand) [8-mer CGGACTTC] | 0.496 |  | 
21 | CGGAGTTA (double strand) [8-mer CGGAGTTA] | 0.495 |  | binding signal (PBM E-score (-0.5 to 0.5)) [4]: 0.487
22 | CGGAGTTC (double strand) [8-mer CGGAGTTC] | 0.498 |  | 
23 | CGTATACG (double strand) [8-mer CGTATACG] |  | 0.494 | 
24 | CTAAACGA (double strand) [8-mer CTAAACGA] |  | 0.496 | binding signal (PBM E-score (-0.5 to 0.5)) [5]: 0.493
25 | CTATACGA (double strand) [8-mer CTATACGA] |  | 0.498 | binding signal (PBM E-score (-0.5 to 0.5)) [5]: 0.496
26 | CTCGTATA (double strand) [8-mer CTCGTATA] |  | 0.499 | binding signal (PBM E-score (-0.5 to 0.5)) [5]: 0.498
27 | CTCGTTTA (double strand) [8-mer CTCGTTTA] |  | 0.495 | binding signal (PBM E-score (-0.5 to 0.5)) [5]: 0.495
28 | GCACGGCA (double strand) [8-mer GCACGGCA] |  |  | binding signal (PBM E-score (-0.5 to 0.5)) [3]: 0.49
29 | GCGCCGCA (double strand) [8-mer GCGCCGCA] |  |  | binding signal (PBM E-score (-0.5 to 0.5)) [3]: 0.491
30 | GCGCCGTA (double strand) [8-mer GCGCCGTA] |  |  | binding signal (PBM E-score (-0.5 to 0.5)) [3]: 0.495
31 | GTATACGA (double strand) [8-mer GTATACGA] |  | 0.495 | binding signal (PBM E-score (-0.5 to 0.5)) [5]: 0.492
32 | GTCGTATA (double strand) [8-mer GTCGTATA] |  | 0.496 | binding signal (PBM E-score (-0.5 to 0.5)) [5]: 0.497
33 | GTCGTTTA (double strand) [8-mer GTCGTTTA] |  | 0.494 | 
34 | GTGCCGTA (double strand) [8-mer GTGCCGTA] |  |  | binding signal (PBM E-score (-0.5 to 0.5)) [3]: 0.493
35 | TAAACGAA (double strand) [8-mer TAAACGAA] |  | 0.494 | 
36 | TATACGAA (double strand) [8-mer TATACGAA] |  | 0.495 | binding signal (PBM E-score (-0.5 to 0.5)) [5]: 0.494
37 | TCGTATAA (double strand) [8-mer TCGTATAA] |  | 0.497 | binding signal (PBM E-score (-0.5 to 0.5)) [5]: 0.498
38 | TCGTTTAA (double strand) [8-mer TCGTTTAA] |  | 0.497 | binding signal (PBM E-score (-0.5 to 0.5)) [5]: 0.494
